Measured values taken from patent US20180105596A1 (ELSALYS BIOTECH, published 2018).
Changes are numbered by the printed parent chain.

Key:
[1] = target: T1, Tyro3 ECD FNIII 1-FNIII-2; test: sandwich ELISA, Strep-tagged fragment captured on StrepMAB plate, scFv 10 µg/mL (Table 17), anti-FLAG-HRP
T1 construct: also called FNIII 1 + FNIII 2 fragment of hTyro3 ECD, His-Strep tagged
T1 fragment: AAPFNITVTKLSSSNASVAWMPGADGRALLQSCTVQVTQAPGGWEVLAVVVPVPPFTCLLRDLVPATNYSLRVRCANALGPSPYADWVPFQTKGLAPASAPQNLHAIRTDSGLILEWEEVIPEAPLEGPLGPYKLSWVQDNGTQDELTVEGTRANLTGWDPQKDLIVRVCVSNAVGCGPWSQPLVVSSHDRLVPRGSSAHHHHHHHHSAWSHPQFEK

Tyro3 ECD Ig2-FNIII 1 = target: T2, Tyro3 ECD Ig2-FNIII 1; test: as above
T2 construct: also called Ig2 + FNIII 1 fragment of hTyro3 ECD, His-Strep tagged
T2 fragment: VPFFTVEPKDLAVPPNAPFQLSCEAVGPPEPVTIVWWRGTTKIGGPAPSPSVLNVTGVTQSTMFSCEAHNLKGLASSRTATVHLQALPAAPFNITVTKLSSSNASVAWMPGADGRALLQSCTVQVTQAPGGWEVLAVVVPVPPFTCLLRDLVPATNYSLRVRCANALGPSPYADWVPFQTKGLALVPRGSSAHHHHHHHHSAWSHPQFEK

[2] = target: T3, Ig-1 domain fragment of human Tyro3 ECD, His-Strep tagged (human); test: as above
T3 chain: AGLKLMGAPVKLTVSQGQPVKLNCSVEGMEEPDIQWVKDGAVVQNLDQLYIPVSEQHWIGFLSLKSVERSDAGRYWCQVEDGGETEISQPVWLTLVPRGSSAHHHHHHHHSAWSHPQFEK

[3] = target: T4, Ig-1 and Ig-2 domains fragment of human Tyro3 ECD, His-Strep tagged (human); test: as above
T4 construct: also called Ig1-Ig2 fragment
T4 chain: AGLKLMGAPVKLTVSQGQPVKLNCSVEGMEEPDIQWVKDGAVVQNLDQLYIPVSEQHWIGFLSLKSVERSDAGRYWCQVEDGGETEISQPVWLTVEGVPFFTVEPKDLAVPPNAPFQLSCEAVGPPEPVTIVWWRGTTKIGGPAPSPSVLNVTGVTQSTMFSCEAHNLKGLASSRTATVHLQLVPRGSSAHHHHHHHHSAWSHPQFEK

[4] = target: T5, extracellular domain of human Axl, Fc fusion (R&D Systems 154-AL-100) (human, UniProt P30530 26-451); test: ELISA, ECD coated 1 µg/well, scFv 1 µg/mL, anti-tag-HRP
T5 construct: Bought protein; also called hAxl; hAXL; not shown: Fc of the bought ECD-Fc fusion
T5 sequence: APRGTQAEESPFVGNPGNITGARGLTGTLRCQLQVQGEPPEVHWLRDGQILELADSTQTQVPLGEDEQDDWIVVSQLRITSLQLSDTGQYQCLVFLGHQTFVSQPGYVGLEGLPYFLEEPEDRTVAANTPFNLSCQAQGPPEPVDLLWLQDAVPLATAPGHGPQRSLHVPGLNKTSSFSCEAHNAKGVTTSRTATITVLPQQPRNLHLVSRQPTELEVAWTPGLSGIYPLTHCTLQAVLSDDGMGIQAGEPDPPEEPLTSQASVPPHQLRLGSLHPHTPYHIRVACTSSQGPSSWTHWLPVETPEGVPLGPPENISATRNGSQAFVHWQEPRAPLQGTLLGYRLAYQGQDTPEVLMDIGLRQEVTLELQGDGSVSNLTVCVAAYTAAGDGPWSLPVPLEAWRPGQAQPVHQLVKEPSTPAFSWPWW
Protocol: (§1) Extracellular domains of hTyro 3 (859-DK-100), hAxl (154-AL-100) or hMer (891-MR-100) from R&D Systems were coated onto 96-wells microtiter plates (1 μg/well) in PBS and incubated overnight at 4° C. Plates were washed three times with PBS and blocked in PBS/3% BSA for 1 hour at RT. Plates were washed as above and scFvs were added at 1 μg/mL (diluted in PBS) and incubated for 1 hour at RT. Plates were washed three times with PBST (PBS/0.01% Tween-20) and secondary antibody anti-FLAG-HRP was added (Abcam, ab49763, 1/5000 dilution in blocking buffer) for 1 hour at RT. Plates were washed as above with PBST and signal was developed with Ultra-TMB reagent (Thermo Scientific, 34028).

hTyro 3-ECD = target: T6, hTyro 3-ECD; test: as above
T6 construct: not the His-Strep tagged ECD m13; also called Recombinant Human Dtk-Fc Chimera (R&D Systems 859-DK-100); not shown: Human Fc, and any linker, of the commercial chimera (R&D Systems 859-DK-100)
T6 chain: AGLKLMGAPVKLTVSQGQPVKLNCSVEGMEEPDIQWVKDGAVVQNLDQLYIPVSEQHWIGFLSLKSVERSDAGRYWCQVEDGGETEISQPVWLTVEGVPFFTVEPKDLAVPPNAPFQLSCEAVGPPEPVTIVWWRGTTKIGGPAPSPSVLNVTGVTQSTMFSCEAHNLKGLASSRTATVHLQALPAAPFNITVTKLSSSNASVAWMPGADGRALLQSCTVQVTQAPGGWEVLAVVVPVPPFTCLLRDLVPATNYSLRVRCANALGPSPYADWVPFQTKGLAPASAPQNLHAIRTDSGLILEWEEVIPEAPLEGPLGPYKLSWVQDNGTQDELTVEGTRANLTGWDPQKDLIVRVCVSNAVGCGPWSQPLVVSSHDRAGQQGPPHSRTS
Protocol: as §1

[5] = target: T7, extracellular domain of human Mer, Fc fusion (R&D Systems 891-MR-100) (human, UniProt Q12866 21-505); test: as above
T7 construct: Bought protein; also called hMer; hMER; not shown: Fc of the bought ECD-Fc fusion
T7 sequence: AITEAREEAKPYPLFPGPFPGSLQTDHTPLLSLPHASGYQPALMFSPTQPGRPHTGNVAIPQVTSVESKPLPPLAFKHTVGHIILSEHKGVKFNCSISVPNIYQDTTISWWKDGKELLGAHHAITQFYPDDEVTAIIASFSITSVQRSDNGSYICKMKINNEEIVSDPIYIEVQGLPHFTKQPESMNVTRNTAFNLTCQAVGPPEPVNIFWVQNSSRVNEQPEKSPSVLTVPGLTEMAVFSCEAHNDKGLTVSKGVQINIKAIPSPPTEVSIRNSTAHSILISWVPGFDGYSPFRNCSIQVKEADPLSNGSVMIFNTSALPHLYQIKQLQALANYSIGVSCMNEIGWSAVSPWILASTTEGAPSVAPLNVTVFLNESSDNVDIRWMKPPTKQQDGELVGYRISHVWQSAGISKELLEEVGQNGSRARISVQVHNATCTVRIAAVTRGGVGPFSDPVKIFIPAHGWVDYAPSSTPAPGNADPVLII
Protocol: as §1

[6] = target: T8, cynomolgus Tyro3 ECD, His-Strep tagged; test: sandwich ELISA, Strep-tagged cynomolgus Tyro3 ECD captured on StrepMAB plate, IgG 3-fold from 3 µg/mL, anti-human IgG1-HRP
T8 construct: also called cyno TYRO3 ECD 8hisstrep
T8 extracellular domain: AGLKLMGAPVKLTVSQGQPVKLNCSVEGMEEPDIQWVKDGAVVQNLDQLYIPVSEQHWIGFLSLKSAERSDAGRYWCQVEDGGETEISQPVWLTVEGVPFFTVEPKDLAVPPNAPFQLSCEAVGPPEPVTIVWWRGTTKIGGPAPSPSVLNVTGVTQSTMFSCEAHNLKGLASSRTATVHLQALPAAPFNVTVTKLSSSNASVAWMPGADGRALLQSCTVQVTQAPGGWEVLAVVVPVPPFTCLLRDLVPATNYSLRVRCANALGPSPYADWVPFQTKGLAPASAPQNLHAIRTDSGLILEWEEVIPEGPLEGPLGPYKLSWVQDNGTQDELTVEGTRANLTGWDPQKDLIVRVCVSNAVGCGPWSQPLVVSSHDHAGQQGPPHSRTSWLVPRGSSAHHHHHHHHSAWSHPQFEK
Protocol: [The procedure below names another species; the source lists this species under the same test.] (§2) A double sandwich ELISA was developed. This assay consisted in measuring the binding of the anti-Tyro3 antibodies to be tested on immobilized strep-tagged entire human Tyro3 ECD captured directly on ELISA plate pre-coated with an anti-strep mAb (StrepMAB-Immo coated microplates from IBA biotech). Briefly, the 96 wells of StrepMAB-Immo coated microplate were washed three times with 300 μL of the PBS Tween 0.2% (referred as ELISA washing solution). The capture of an excess of purified strep tagged hTyro3 ECD protein was achieved by a one hour incubation at room temperature. In these experiments, 3 μg of purified protein diluted in PBS, BSA 1% (referred as ELISA diluent solution) were immobilized per well. The wells were washed three times with 300 μL of the washing solution. The non-specific binding sites on the well surface were blocked during 60 min at room temperature with 200 μL/well of blocking solution (PBS, BSA 3%). The wells were washed five times with 300 μL of the washing solution. Then, 100 μl (in duplicates) of the different concentrations of anti-Tyro3 antibodies to be tested diluted in ELISA diluent solution, were added per well and allowed to incubate during 1 hour at room temperature. An Irrelevant control IgG2656 was also added in this experiment. For anti-Tyro3 antibodies in the ScFv format, experiments were performed with 6 concentrations in duplicates (FIG. 3A). For anti-Tyro3 antibodies in the IgG format, experiments were performed with 9 concentrations in duplicates (FIG. 3B). […] For IgGs experiments, starting concentration for first dilution was 3 μg/ml and then dilutions of 3 fold in the ELISA diluent solution were performed. The wells were washed five times with 300 μL of the washing solution. […] The mix was allowed to incubated 60 min at room temperature.

[7] = target: T9, recombinant His-Strep tagged human Tyro3 extracellular domain (human, UniProt Q06418 41-429); test: sandwich ELISA, Strep-tagged hTyro3 ECD captured on StrepMAB plate, IgG 3-fold from 3 µg/mL, anti-human IgG1-HRP
T9 construct: also called hTyro3 ECD; full Tyro3 ECD
T9 sequence: T8 extracellular domain with A67V, V191I, G309A, H376R
Protocol: as §2

B1: anti-Tyro3 scFv 2413 (scFv, V domains shown)
VH: EVQLVQSGADVKKPGASLTISCQASGYTFTDYWISWVRQKPGKGLEWMGRIHTYQSSTRYGPSFQGHVTISADRSTATAYLQWRSLEASDTAMYYCVRHHSTTTANPYSSWGPGTLVTVSS
VL: SYELTQPPSVSVSPGQTARITCSGDALPKKYAYWYQQKSGQAPVLVIYEDDKRLSGIPERFSGSSSGTMATLTISGAQVEDEADYYCYSTEINGNYAVFGGGTKLTVL
notes: Tested as a single-chain Fv made in E. coli
binding result [1]: no binding (tested: 10 µg/mL)
binding result (Tyro3 ECD Ig2-FNIII 1): binds
binding result [2]: binds
binding result [3]: binds
binding result [4]: no binding (tested: 1 µg/mL)
binding result (hTyro 3-ECD): binds
binding result [5]: no binding (tested: 1 µg/mL)

B2: anti-Tyro3 scFv 2718 (scFv, V domains shown)
VH: EVQLVQSGADVKKPGASLTISCQASGYTFTDYWISWVRQKPGKGLEWMGHINPMRSTTTYGPSFQGHVTISADRSTATAYLQWHSLEASDTAMYYCVRNDNHDDYTYTDDWGPGTLVTVSS
VL: B1 VL with D51T, L54H, T90A, I92H, N93R
notes: as for B1
binding result [1]: binds
binding result (Tyro3 ECD Ig2-FNIII 1): binds
binding result [2]: no binding (tested: 10 µg/mL)
binding result [3]: no binding (tested: 10 µg/mL)
binding result [4]: no binding (tested: 1 µg/mL)
binding result (hTyro 3-ECD): binds
binding result [5]: no binding (tested: 1 µg/mL)

B3: IgG2411 (antibody, V domains shown)
VH: EVQLVQSGADVKKPGASLTISCQASGYTFTDYWISWVRQKPGKGLEWMGSITRSSSRTHYGPSFQGHVTISADRSTATAYLQWRSLEASDTAMYYCVRGYTHLRTWGPGTLVTVSS
VL: B1 VL with D51S, L54S, T90A, E91N, I92Q, N93R, A97M
notes: also called IGX2411
EC50 (read off the curve) [6]: ~0.02 µg/mL
EC50 (read off the curve) [7]: ~0.02 µg/mL

B4: anti-Tyro3 scFv 2411 (scFv, V domains shown)
VH: B3 VH
VL: B1 VL with D51S, L54S, T90A, E91N, I92Q, N93R, A97M
notes: as for B1
binding result [1]: no binding (tested: 10 µg/mL)
binding result (Tyro3 ECD Ig2-FNIII 1): binds
binding result [2]: binds
binding result [3]: binds
binding result [4]: no binding (tested: 1 µg/mL)
binding result (hTyro 3-ECD): binds
binding result [5]: no binding (tested: 1 µg/mL)
